The text below walks through data of publication PMC11758377 (2026).

The assay has as its target H3K4me3 peptide (Homo sapiens, UniProt P68431). Briefly: MST.

B1: BPTF-PHD PHD (protein)
chain: KLYCICKTPYDESKFYIGCDRCQNWYHGRCVGILQSEAELIDEYVCPQCQST
On to B1, for which the Kd (usually the free concentration of one partner at which half of the binding sites on the other are occupied at equilibrium, for simple one-to-one binding) came to 2900 nM.
